Assay results as given in the Immune Epitope Database (IEDB).

What was measured:
Assay in all cases: IEDB peptide-MHC binding, purified MHC/competitive/radioactivity; filed as Kd, often an IC50 or EC50 that approximates it; ≥ and ≤ were set here for values at or beyond the usual limits of such assays
[1] = biological target: HLA-A*11:01
[2] = biological target: HLA-A*03:01
[3] = biological target: HLA-A*68:01
[4] = biological target: HLA-A*31:01
[5] = biological target: HLA-A*33:01
[6] = source organism: Vaccinia virus WR
[7] = source organism: Dengue virus 2 Jamaica/1409/1983
[8] = source organism: SARS coronavirus Tor2
[9] = source organism: Dengue virus 1 Brazil/97-11/1997
[10] = source organism: Dengue virus 4 Philippines/H241/1956
[11] = source organism: Vaccinia virus Copenhagen
[12] = source organism: Dengue virus 4 Dominica/814669/1981
[13] = source organism: Mammarenavirus whitewaterense
[14] = source organism: Lymphocytic choriomeningitis virus (strain Armstrong)
[15] = source organism: Dengue virus 3 Martinique/1243/1999
[16] = source organism: Mammarenavirus guanaritoense

| Sequence | Kd [1, 6] [nM] | Kd [2, 6] [nM] | Kd [3, 6] [nM] | Kd [4, 6] [nM] | Kd [5, 6] [nM] | further results |
| --- | --- | --- | --- | --- | --- | --- |
| KIMSIGFEAR | 36.2 | 175 | 88.1 | 6.06 | 562 |  |
| KINSVKYYGR | 135 | 1870 | 5340 | 30.2 | 2420 |  |
| KIPIYSHTER | 1140 | 1060 | 1530 | 25.8 | 1190 |  |
| KLGEFGKAK |  |  |  |  |  | Kd [2, 7]: 22.1 nM |
| KLMEEYLRR | 9.83 | 11.4 | 1910 | 5.59 | ≥ 22000 |  |
| KSFNHVLKRK |  |  |  |  |  | Kd [1, 8]: 6.18 nM; Kd [2, 8]: 1.01 nM; Kd [3, 8]: 1570 nM; Kd [4, 8]: 67.9 nM; Kd [5, 8]: ≥ 70000 nM |
| KSLNRQTVSR | 187 | 87.2 | 7000 | 7.78 | 1320 |  |
| KSTQSVLCVK | 0.497 | 60.7 | 26.5 | 90 | 11400 |  |
| KVIDLGCGR |  |  |  |  |  | Kd [4, 9]: 9210 nM |
| LACTDPSER | 19900 | ≥ 55100 | 173 | 572 | 2310 |  |
| LAELLEMKY | ≥ 77900 | 14400 | ≥ 77700 | ≥ 77900 | ≥ 77700 |  |
| LLAISAVYFK | 11.9 | 3.35 | 2.52 | 379 | 1030 |  |
| LLNKEMYLK |  |  |  |  |  | Kd [1, 8]: 16.9 nM; Kd [2, 8]: 10.7 nM; Kd [3, 8]: 1100 nM; Kd [4, 8]: 155 nM; Kd [5, 8]: 6500 nM |
| LLSIVVDINK | 35.9 | 485 | 110 | 1090 | 10500 |  |
| LSDIISAEK | 34.1 | 946 | 185 | 1800 | 12600 |  |
| MILMKMKKK |  |  |  |  |  | Kd [2, 10]: 86.3 nM |
| MLIFNVKSK | 491 | 228 | 0.841 | ≥ 21100 | ≥ 45800 |  |
| MLIYSMWGK |  |  |  |  |  | Kd [1, 11]: 2.63 nM; Kd [2, 11]: 10.6 nM; Kd [4, 11]: 459 nM; Kd [5, 11]: 2040 nM |
| MWTLMYFHR |  |  |  |  |  | Kd [4, 7]: 7.83 nM; Kd [5, 7]: 1.51 nM |
| NSALTLHWFR |  |  |  |  |  | Kd [3, 12]: 1.75 nM; Kd [4, 12]: 3.53 nM; Kd [5, 12]: 4.07 nM |
| NSEYIESKAK | 1960 | 5890 | 4190 | ≥ 34200 | ≥ 30600 |  |
| NTFPNITLK |  |  |  |  |  | Kd [1, 11]: 9.39 nM; Kd [2, 11]: 53.1 nM; Kd [3, 11]: 0.779 nM; Kd [4, 11]: 595 nM; Kd [5, 11]: 164 nM |

| Sequence | Kd [1, 6] [nM] | Kd [2, 6] [nM] | Kd [3, 6] [nM] | Kd [4, 6] [nM] | Kd [5, 6] [nM] | further results |
| --- | --- | --- | --- | --- | --- | --- |
| PISASDMQK | 163 | 3230 | 8850 | 282 | 7290 |  |
| PLHILASNK | 6420 | 161 | 11400 | 12500 | ≥ 77700 |  |
| PMFAVGLLFR |  |  |  |  |  | Kd [5, 9]: 91.1 nM |
| QIFNEDTSYY | 725 | 1420 | 11.7 | ≥ 35700 | ≥ 70000 |  |
| QKCGELLEFH |  |  |  |  |  | Kd [1, 13]: ≥ 69700 nM; Kd [2, 13]: ≥ 70000 nM; Kd [3, 13]: ≥ 70100 nM; Kd [4, 13]: 11300 nM; Kd [5, 13]: ≥ 70000 nM |
| QMREIITGNK | 1710 | 15.8 | 12400 | 1950 | ≥ 47500 |  |
| QQQGQTVTKK |  |  |  |  |  | Kd [1, 8]: 407 nM; Kd [2, 8]: 6440 nM; Kd [3, 8]: 8240 nM; Kd [4, 8]: 13700 nM; Kd [5, 8]: ≥ 70000 nM |
| QVIAVEPGK |  |  |  |  |  | Kd [1, 9]: 781 nM |
| RCHDHYLCR |  |  |  |  |  | Kd [1, 14]: ≥ 25700 nM; Kd [2, 14]: ≥ 22300 nM; Kd [3, 14]: ≥ 10000 nM; Kd [4, 14]: 907 nM; Kd [5, 14]: ≥ 35600 nM |
| RLNNPVILSK | 11.9 | 11.7 | 4490 | 1550 | ≥ 54900 |  |
| RMLFTSTNDK | 1.54 | 3.92 | 35.6 | 112 | 15100 |  |
| RQDLLVTFK |  |  |  |  |  | Kd [1, 9]: 197 nM |
| RSCSYKIGHH |  |  |  |  |  | Kd [1, 13]: 17200 nM; Kd [2, 13]: 3900 nM; Kd [3, 13]: ≥ 50900 nM; Kd [4, 13]: 294 nM; Kd [5, 13]: ≥ 70000 nM |
| RSDGYFLKIK | 1560 | 10400 | ≥ 70200 | 5500 | ≥ 70000 |  |
| SILASSLLR |  |  |  |  |  | Kd [1, 15]: 125 nM; Kd [2, 15]: 722 nM |
| TTIFAGHLK |  |  |  |  |  | Kd [1, 9]: 30.7 nM; Kd [3, 9]: 25.4 nM |
| TTSLFLHLV |  |  |  |  |  | Kd [2, 16]: 15300 nM; Kd [5, 16]: 2260 nM |
| TYLALIATFK |  |  |  |  |  | Kd [5, 15]: 69.9 nM |
| TYSDPLALR |  |  |  |  |  | Kd [4, 9]: ≥ 77900 nM; Kd [5, 9]: 9.22 nM |
| VVKDDPDHYK |  |  | ≥ 70200 | ≥ 40300 | ≥ 70000 |  |
| WSLMYFHRR |  |  |  |  |  | Kd [4, 15]: 0.548 nM; Kd [5, 15]: 0.235 nM |
| YVLGIFLRK |  |  |  |  |  | Kd [1, 10]: 9.88 nM; Kd [2, 10]: 1.22 nM |
